Results as given in IntAct's records for PubMed 25487150.

B1: Spindle pole body-associated protein cut12 (Schizosaccharomyces pombe (strain ATCC 38366 / 972)), O59755 (parent)
chain: MSETLNTPPTYAWVLKAFSSKLAGTVTKPVTKMSSYIEDAESDAELPQDAKEDLRPTETLTPLKSKAAQNGILKTPGTLQIKKTVNFKDISKDAATWNRPTKNNFLFTRLDDENPLMGHEEFKSPLLQSTPKPNINNPDNENKSKHDEFDNRYNININESYKNETKSNQRLGEDVPSKKKYPHSMDAEISKFKWDSNNNNDWSSLMKDCFRDVVNNNRKMKEIIKDVMIDTSQAFPSESLDEPDYTINLDAPRSSSGKYWKQKFSMLDSAHSDLELELTSIRERLESLILEKQEEINFWKQRCRALETEKIHNHQGQQSKYKGKEFVGNRFSQMRELYTAKPSPITTKVVSRPSQSDVREPQEQVPSKNLHRGADMSHLAAQMLTHSSKKSHTTNLIPSEGIISSTPISAASKVRMNLMQSNQTPTPAPFSIAAKKSHLPSKLSFPQDGGSLSSATTLQQLPKARVTPNVLSSLSSNLGKTNPTSVYQSKANVTTSADVEKPQVKVATSSRVDYDLKSPNQRTANAKKRLEERRRRRKLKLQELQLNS
B2: Protein phosphatase PP2A regulatory subunit B (Schizosaccharomyces pombe (strain ATCC 38366 / 972)), Q12702 (parent)
chain: MDDIEDSLDQWKFAQCFGDKGDVEDITEADIISAVEFDHTGDYLATGDKGGRVVLFERNHSKKGCEYKFFTEFQSHEPEFDYLKSLEIEEKINKIRWCKRTNRAHFLLSTNDKTIKLWKLYEKNLKVVAENNLSDSFHSPMQGPLTTPSQLRLPRLNHHDMIIAAYPRRVYANAHAYHINSISVNSDAETYISADDLRINLWNLSISDHSFNIVDIKPENMEELTEVITSAEFHPINCNHLMYSSSKGNIKLLDLRQSALCDNPCKLFEDQEDQDSKSFFSEIISSISDVKFSQNGRYILSRDYLTLKIWDVNMEKAPVKTIPLHDVLRSKLCDLYENDCIFDKFECTFSGDDKHVLSGSYSNNFGIYPTDSSLPGDRGQIVLQADKAAFRARKSAANNVPKLNAVKNNDWRSQPQAAMGSASVGLDPDNLDYNKKILHASWHPFEDSVAIAATNNLFVFSKL

Variants of: B1
Details: with pp11_schpo dis2, P13681
Target sequence in this assay (P13681 whole entry): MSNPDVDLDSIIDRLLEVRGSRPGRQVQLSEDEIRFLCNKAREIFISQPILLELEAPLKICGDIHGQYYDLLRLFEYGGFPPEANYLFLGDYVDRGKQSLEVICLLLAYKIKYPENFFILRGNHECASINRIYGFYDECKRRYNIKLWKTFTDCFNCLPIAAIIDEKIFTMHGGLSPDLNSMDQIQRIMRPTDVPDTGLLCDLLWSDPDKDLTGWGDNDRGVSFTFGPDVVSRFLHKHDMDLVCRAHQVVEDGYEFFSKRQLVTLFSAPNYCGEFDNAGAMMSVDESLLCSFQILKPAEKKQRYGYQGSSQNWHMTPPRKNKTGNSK

Row | Variant | effect of a mutation on the interaction
1 | MSETLNTPPTYAWVLKAFSSKLAGTVTKPVTKMSSYIEDAESDAELPQDAKEDLRPTETLTPLKSKAAQNVILKTPGTLQIKATANAKDISKDAATWNRPTKNNFLFTRLDDENPLMGHEEFKSPLLQSTPKPNINNPDNENKSKHDEFDNRYNININESYKNETKSNQRLGEDVPSKKKYPHSMDAEISKFKWDSNNNNDWSSLMKDCFRDVVNNNRKMKEIIKDVMIDTSQAFPSESLDEPDYTINLDAPRSSSGKYWKQKFSMLDSAHSDLELELTSIRERLESLILEKQEEINFWKQRCRALETEKIHNHQGQQSKYKGKEFVGNRFSQMRELYTAKPSPITTKVVSRPSQSDVREPQEQVPSKNLHRGADMSHLAAQMLTHSSKKSHTTNLIPSEGIISSTPISAASKVRMNLMQSNQTPTPAPFSIAAKKSHLPSKLSFPQDGGSLSSATTLQQLPKARVTPNVLSSLSSNLGKTNPTSVYQSKANVTTSADVEKPQVKVATSSRVDYDLKSPNQRTANAKKRLEERRRRRKLKLQELQLNS [G71V;K83A;V85A;F87A] | disrupting interaction strength
2 | MSETLNTPPTYAWVLKAFSSKLAGTVTKPVTKMSSYIEDAESDAELPQDAKEDLRPTETLTPLKSKAAQNVILKTPGTLQIKKTVNFKDISKDAATWNRPTKNNFLFTRLDDENPLMGHEEFKSPLLQSTPKPNINNPDNENKSKHDEFDNRYNININESYKNETKSNQRLGEDVPSKKKYPHSMDAEISKFKWDSNNNNDWSSLMKDCFRDVVNNNRKMKEIIKDVMIDTSQAFPSESLDEPDYTINLDAPRSSSGKYWKQKFSMLDSAHSDLELELTSIRERLESLILEKQEEINFWKQRCRALETEKIHNHQGQQSKYKGKEFVGNRFSQMRELYTAKPSPITTKVVSRPSQSDVREPQEQVPSKNLHRGADMSHLAAQMLTHSSKKSHTTNLIPSEGIISSTPISAASKVRMNLMQSNQTPTPAPFSIAAKKSHLPSKLSFPQDGGSLSSATTLQQLPKARVTPNVLSSLSSNLGKTNPTSVYQSKANVTTSADVEKPQVKVATSSRVDYDLKSPNQRTANAKKRLEERRRRRKLKLQELQLNS [G71V] | decreasing interaction strength
3 | MSETLNTPPTYAWVLKAFSSKLAGTVTKPVTKMSSYIEDAESDAELPQDAKEDLRPTETLTPLKSKAAQNGILKTPGTLQIKKTANAKDISKDAATWNRPTKNNFLFTRLDDENPLMGHEEFKSPLLQSTPKPNINNPDNENKSKHDEFDNRYNININESYKNETKSNQRLGEDVPSKKKYPHSMDAEISKFKWDSNNNNDWSSLMKDCFRDVVNNNRKMKEIIKDVMIDTSQAFPSESLDEPDYTINLDAPRSSSGKYWKQKFSMLDSAHSDLELELTSIRERLESLILEKQEEINFWKQRCRALETEKIHNHQGQQSKYKGKEFVGNRFSQMRELYTAKPSPITTKVVSRPSQSDVREPQEQVPSKNLHRGADMSHLAAQMLTHSSKKSHTTNLIPSEGIISSTPISAASKVRMNLMQSNQTPTPAPFSIAAKKSHLPSKLSFPQDGGSLSSATTLQQLPKARVTPNVLSSLSSNLGKTNPTSVYQSKANVTTSADVEKPQVKVATSSRVDYDLKSPNQRTANAKKRLEERRRRRKLKLQELQLNS [V85A;F87A] | decreasing interaction strength
4 | MSETLNTPPTYAWVLKAFSSKLAGTVTKPVTKMSSYIEDAESDAELPQDAKEDLRPTETLTPLKSKAAQNGLLRTPGTLQIKKTANAKDISKDAATWNRPTKNNFLFTRLDDENPLMGHEEFKSPLLQSTPKPNINNPDNENKSKHDEFDNRYNININESYKNETKSNQRLGEDVPSKKKYPHSMDAEISKFKWDSNNNNDWSSLMKDCFRDVVNNNRKMKEIIKDVMIDTSQAFPSESLDEPDYTINLDAPRSSSGKYWKQKFSMLDSAHSDLELELTSIRERLESLILEKQEEINFWKQRCRALETEKIHNHQGQQSKYKGKEFVGNRFSQMRELYTAKPSPITTKVVSRPSQSDVREPQEQVPSKNLHRGADMSHLAAQMLTHSSKKSHTTNLIPSEGIISSTPISAASKVRMNLMQSNQTPTPAPFSIAAKKSHLPSKLSFPQDGGSLSSATTLQQLPKARVTPNVLSSLSSNLGKTNPTSVYQSKANVTTSADVEKPQVKVATSSRVDYDLKSPNQRTANAKKRLEERRRRRKLKLQELQLNS [I72L;K74R;V85A;F87A] | decreasing interaction strength

Variants of: B2
Details: with pp11_schpo dis2, P13681
Target sequence in this assay (P13681 whole entry): as the sequence (P13681 whole entry) above

Row | Variant | effect of a mutation on the interaction
5 | MDDIEDSLDQWKFAQCFGDKGDVEDITEADIISAVEFDHTGDYLATGDKGGRVALFERNHSKKGCEYKFFTEFQSHEPEFDYLKSLEIEEKINKIRWCKRTNRAHFLLSTNDKTIKLWKLYEKNLKVVAENNLSDSFHSPMQGPLTTPSQLRLPRLNHHDMIIAAYPRRVYANAHAYHINSISVNSDAETYISADDLRINLWNLSISDHSFNIVDIKPENMEELTEVITSAEFHPINCNHLMYSSSKGNIKLLDLRQSALCDNPCKLFEDQEDQDSKSFFSEIISSISDVKFSQNGRYILSRDYLTLKIWDVNMEKAPVKTIPLHDVLRSKLCDLYENDCIFDKFECTFSGDDKHVLSGSYSNNFGIYPTDSSLPGDRGQIVLQADKAAFRARKSAANNVPKLNAVKNNDWRSQPQAAMGSASVGLDPDNLDYNKKILHASWHPFEDSVAIAATNNLFVFSKL [V54A] | decreasing interaction strength
6 | MDDIEDSLDQWKFAQCFGDKGDVEDITEADIISAVEFDHTGDYLATGDKGGAVALAERNHSKKGCEYKFFTEFQSHEPEFDYLKSLEIEEKINKIRWCKRTNRAHFLLSTNDKTIKLWKLYEKNLKVVAENNLSDSFHSPMQGPLTTPSQLRLPRLNHHDMIIAAYPRRVYANAHAYHINSISVNSDAETYISADDLRINLWNLSISDHSFNIVDIKPENMEELTEVITSAEFHPINCNHLMYSSSKGNIKLLDLRQSALCDNPCKLFEDQEDQDSKSFFSEIISSISDVKFSQNGRYILSRDYLTLKIWDVNMEKAPVKTIPLHDVLRSKLCDLYENDCIFDKFECTFSGDDKHVLSGSYSNNFGIYPTDSSLPGDRGQIVLQADKAAFRARKSAANNVPKLNAVKNNDWRSQPQAAMGSASVGLDPDNLDYNKKILHASWHPFEDSVAIAATNNLFVFSKL [R52A;V54A;F56A] | disrupting interaction strength
